Usually Kd stands for the constant that tells how readily two partners part at equilibrium.

In this test the target is T1, Recombinant soluble CD40-his (human, UniProt P25942 21-193, limits assumed).
T1 construct: not shown: his tag
Kind of test: binding affinity to human CD40 (Biacore per paragraph 64).

T1 sequence (P25942 21-193 limits assumed): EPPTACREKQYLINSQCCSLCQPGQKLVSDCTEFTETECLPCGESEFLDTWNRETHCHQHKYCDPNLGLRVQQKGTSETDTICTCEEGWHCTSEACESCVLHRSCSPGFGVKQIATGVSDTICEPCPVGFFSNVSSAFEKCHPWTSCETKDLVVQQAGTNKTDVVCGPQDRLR

B1: monoclonal antibody CHIR-5.9 (antibody, human IgG1, kappa, V domains shown)
VH: EVQLVQSGAEVKKPGESLKISCKGSGYSFTSYWIGWVRQMPGKGLEWMGIIYPGDSDTRYSPSFQGQVTISADKSISTAYLQWSSLKASDTAMYYCARGTAAGRDYYYYYGMDVWGQGTTVTVSS
VL: AIVMTQPPLSSPVTLGQPASISCRSSQSLVHSDGNTYLNWLQQRPGQPPRLLIYKFFRRLSGVPDRFSGSGAGTDFTLKISRVEAEDVGVYYCMQVTQFPHTFGQGTRLEIKR
notes: Fully human IgG1 kappa anti-human CD40 mAb; also called mAb CHIR-5.9; antibody of hybridoma 131.2F8.5.9
On to B1, for which the Kd turned out to be 12 nM.

B2: monoclonal antibody CHIR-12.12 (antibody, human IgG1, kappa, V domains shown)
VH: QVQLVESGGGVVQPGRSLRLSCAASGFTFSSYGMHWVRQAPGKGLEWVAVISYEESNRYHADSVKGRFTISRDNSKITLYLQMNSLRTEDTAVYYCARDGGIAAPGPDYWGQGTLVTVSS
VL: DIVMTQSPLSLTVTPGEPASISCRSSQSLLYSNGYNYLDWYLQKPGQSPQVLISLGSNRASGVPDRFSGSGSGTDFTLKISRVEAEDVGVYYCMQARQTPFTFGPGTKVDIRR
notes: Fully human IgG1 kappa anti-human CD40 mAb; also called antibody of hybridoma 153.8E2.D10.D6.12.12
Turning to B2, the Kd was 0.5 nM.

(Values after US20070098718A1 (Novartis, published 2007).)
